Article PMC8609364, “A Selective Tether Recruits Activated Response Regulator CheB to Its Chemoreceptor Substrate” (mBio, 2021)

B1: methylesterase/deamidase CheB from E. coli, low-activity, unphosphorylated form (enzyme, UniProt P07330 1-349, looked up)
chain: MSKIRVLSVDDSALMRQIMTEIINSHSDMEMVATAPDPLVARDLIKKFNPDVLTLDVEMPRMDGLDFLEKLMRLRPMPVVMVSSLTGKGSEVTLRALELGAIDFVTKPQLGIREGMLAYNEMIAEKVRTAAKASLAAHKPLSAPTTLKAGPLLSSEKLIAIGASTGGTEAIRHVLQPLPLSSPALLITQHMPPGFTRSFADRLNKLCQIGVKEAEDGERVLPGHAYIAPGDRHMELSRSGANYQIKIHDGPAVNRHRPSVDVLFHSVAKQAGRNAVGVILTGMGNDGAAGMLAMRQAGAWTLAQNEASCVVFGMPREAINMGGVCEVVDLSQVSQQMLAKISAGQAIRI
notes: CheB methylesterase/deamidase of E. coli, unphosphorylated, from plasmid pCW/cheB; measured with 2 mM DTT in the buffer; also called low-activity CheB; unmodified CheB; source: E. coli K-12 RP3098 with pCW/cheB, purified
B2: CheBC, catalytic domain of E. coli CheB lacking the regulatory domain and linker (domain or fragment)
chain: LSSEKLIAIGASTGGTEAIRHVLQPLPLSSPALLITQHMPPGFTRSFADRLNKLCQIGVKEAEDGERVLPGHAYIAPGDRHMELSRSGANYQIKIHDGPAVNRHRPSVDVLFHSVAKQAGRNAVGVILTGMGNDGAAGMLAMRQAGAWTLAQNEASCVVFGMPREAINMGGVCEVVDLSQVSQQMLAKISAGQAIRI

How the values were obtained:
[1] = molecular target: Tar4E (chemoreceptor Tar, all-glutamyl, pentapeptide-bearing); experiment: CheB binding to pentapeptide-bearing Tar4E in Nanodiscs (biolayer interferometry); design: species or system E. coli; settings: Tar 4E, pentapeptide yes, BLI; for dwell time (1/koff) / KA (equilibrium association constant) / kon (apparent association rate constant): pH 7.5, 2% BSA (plus 2 mM DTT for CheB and CheBc); for dwell time (1/koff): calculated from mean koff; for kon (apparent association rate constant): mean ± SD of at least three independent experiments
Method: We determined the kinetics of association and dissociation of methylesterase/deamidase CheB in its low- and high-activity form with the E. coli aspartate chemoreceptor Tar using biolayer interferometry ([22], [23]) and isolated receptor homodimers in Nanodiscs ([24], [25]). Apparent rate constants of association and dissociation were derived from global fits of time courses for binding and release (see Fig. S1 in the supplemental material). Equilibrium dissociation constants were calculated from those apparent rate constants.
Supplementary file : FIG S1 Example time courses of CheB binding to Tar. Time courses from five consecutive runs of CheB at different concentrations binding to immobilized Tar4E homodimers. For each time course, a sensor tip decorated with avidin to which were bound biotinylated Tar homodimers in Nanodiscs was placed in buffer and a baseline was established (240 to 255 s). The tip was then placed in a tube containing a solution of CheB at a specific concentration. After 30 s, at which time binding of CheB and Tar was close to an apparent equilibrium, the tip was switched to a tube of buffer, and dissociation was monitored. The global fit to the data is shown as a thin black line. Download FIG S1, TIF file, 1.9 MB.
E. coli CheB and Salmonella CheB D56C/C207S/C309S and D56C/S164A/C207S/C309S were purified as described previously ([11]). CheBC (amino acids [aa] 153 to 349) was purified using the procedure of West et al. ([40]), except that Bio-Gel P-60, was not used. CheB D56C/C207S/C309S and CheB D56C/S164A/C207S/C309S were modified to create a disulfide-linked phosphoryl group on D56C following the procedure described in reference but using a 10-fold molar excess of DTNB [Ellman’s reagent, 5,5′-disulfanediylbis(2-nitrobenzoic acid)] rather than 90-fold and a 50-fold molar excess Na3SPO3 rather than 1,000-fold. The extent of modification was 59% for the former and 60% for the latter determined by reversed phase chromatography essentially as described previously ([26]) and confirmed by Nano LC-Nanospray QTQF mass spectroscopy. Membrane scaffold protein MSP1D1(-) ([41]) was purified as described previously ([25]). Tar4E L378C, Tar4Q L378C, Tar4EΔpp-6H L378C, and Tar4QΔpp-6H L378C were purified, incorporated into Nanodiscs at approximately one receptor dimer per disc, and biotinylated at L378C as described previously ([23], [42]). […] These activities were confirmed for representative samples used in our analyses. Receptor-containing Nanodiscs were dialyzed into 50 mM Tris-HCl (pH 7.5), 0.5 mM EDTA, 10% (wt/vol) glycerol, and 100 mM NaCl. Prior to a binding experiment, the solution was changed using a spin desalting column to 50 mM Tris-HCl, 10% (wt/vol) glycerol, 5 mM MgCl2, and 50 mM KCl (pH 7.5).
Kinetics of CheB association and dissociation with Nanodisc-embedded Tar biotinylated at L378C were determined using biolayer interferometry ([22], [23]) as measured by a BLItz instrument (ForteBio, Menlo Park, CA, USA) and described in reference. Representative time course experiments are shown in Fig. S1 in the supplemental material. Measurements for CheB-P* and CheB-P*-I were in 50 mM Tris-HCl (pH 7.5), 10% (wt/vol) glycerol, 5 mM MgCl2, 50 mM KCl, and 2% (wt/vol) bovine serum albumin (BSA). Measurements for CheB and CheBc were in the same solution plus 2 mM dithiothreitol (DTT).
Using BLItz software, response curves were fit globally to a 1:1 binding model to yield apparent association rate constants (kon) and dissociation rate constants (koff). For analysis of complex patterns of binding, in which more than one binding reaction appeared to be contributing, for instance one that appeared saturable and another nonspecific, nonsaturable, the data were exported and fit globally to nonlinear exponential functions using OriginPro 2017. The best fits to the data were obtained using the following functions. […]

[2] = molecular target: Tar4EΔpp-6H L378C, E. coli Tar lacking the carboxyl-terminal pentapeptide, all-glutamyl form, homodimer in … (E. coli, UniProt P07017 1-553, L378C, biotinylated at L378C); experiment: SPR
[3] = molecular target: Tar4E L378C, E. coli aspartate chemoreceptor Tar, all-glutamyl form with carboxyl-terminal pentapeptide, … (E. coli, UniProt P07017 1-553, L378C, biotinylated at L378C); experiment: SPR
[4] = molecular target: Tar4E L378C, E. coli aspartate chemoreceptor Tar, all-glutamyl form with carboxyl-terminal pentapeptide, homodimer in Nanodiscs (E. coli) (UniProt P07017); experiment: BLI; BLItz; biotinylated Tar homodimers in Nanodiscs held on an avidin sensor tip, CheB or CheBC in solution; 50 mM Tris-HCl pH 7.5, 10% glycerol, 5 mM MgCl2, 50 mM KCl, 2% BSA, 2 mM DTT; global fit, apparent rate constants, KD calculated from kon and koff
[5] = molecular target: Tar4Q L378C, E. coli aspartate chemoreceptor Tar, all-glutaminyl form with carboxyl-terminal pentapeptide, homodimer in Nanodiscs (E. coli) (UniProt P07017); experiment: as above
[6] = system: CheB methylesterase; settings: relative to phosphorylation; ref [8]; cited from earlier work
From the text: A high-activity form of the methylesterase/deamidase, designated CheB-P, is created by phosphorylation at a specific aspartyl residue in its N-terminal regulatory domain ([6][–][8]). However, activation is short-lived because of a high rate of autodephosphorylation ([7]), making it difficult to investigate binding of this activated form of the enzyme to chemoreceptors with confidence. Instead, we used a stable, functionally active mimic of phosphorylated CheB from Salmonella enterica subsp. enterica serovar Typhimurium (hereafter Salmonella) characterized by Saxl and coworkers ([26]). […] To investigate the role binding affinity might have in that activation, we measured binding of CheBC, a form of the methylesterase lacking the amino-terminal regulatory domain and linker, to pentapeptide-bearing and pentapeptide-lacking forms of Tar.

[7] = calculated from mean kon and koff, propagated SD

Row | Molecule | Kd ([1]; 50 mM Tris-HCl pH 7.5, 10% glycerol, 5 mM MgCl2, 50 mM KCl, 2% BSA (plus 2 mM DTT for CheB and CheBc), calculated from mean kon and koff, propagated SD, read-out: KD (equilibrium dissociation constant)) | dwell time (1/koff) ([1]; propagated SD) | KA (equilibrium association constant) [1, 7] | kon (apparent association rate constant) [1] | Ka [2] | Ka [3] | Kd [4] | Kd [5] | activation by deletion of the regulatory domain [6]
1 | B1 | 230 ± 60 µM | 2.8 ± 0.2 s | 4.4 ± 1 10^3 M^-1 | 1,600 ± 420 M^-1s^-1 | 1200 M⁻¹ | 4400 M⁻¹ | 230 µM | 160 µM | –
2 | B2 | – | 2.1 ± 0.1 s | 1.7 ± 0.4 10^3 M^-1 | 810 ± 200 M⁻¹ s⁻¹ | 1500 M⁻¹ | 1700 M⁻¹ | – | – | not as effectively as by phosphorylation
